This passage reports IC50 results from paper PMC3954831, “Protection of Cardiomyocytes from the Hypoxia-Mediated Injury by a Peptide Targeting the Activator of G-Protein Signaling 8” (PLoS ONE, 2014).

The assay concerns the target T1, Recombinant human Gβ1γ2 (human, UniProt P62873 1-340; P59768 1-71).
T1 construct: G-protein beta 1 subunit, human, recombinant; G-protein gamma 2 subunit, human, recombinant; Preformed heterodimer bought as such; detected by an anti-Gβ antibody; also called Gβγ; purified Gβγ; source: bought: Calbiochem-Merck Millipore (recombinant)
Put plainly: pull-down; competition: GST-AGS8-C (100 nM) incubated with recombinant human Gβ1γ2 (10 nM) in the presence of rising doses of peptide CP1 or CP9, adsorbed to a glutathione matrix; immunoblot with densitometry, n = 6. As to conditions: both partners purified.

B1: AGS8-peptide CP9 (peptide)
peptide: SFVIVDWNKAIPGDVVTGYLVYSASYEDFI
notes: About 97% HPLC purity; source: synthetic peptide (Invitrogen)
Turning to B1, the IC50 came to 2.77 µM.

B2: AGS8-peptide CP1 (peptide)
peptide: APRNITVVAMEGCHSFVIVDWNKAIPGDV
notes: as for B1
As to B2, the 50% inhibitory concentration (IC50) was found to be 6.73 µM.
